Measured values: patent US6962971B2, “Chemokines and methods for inducing the differentiation of fibroblasts to myofibroblasts” (The Regents of the University of California, priority 2001, dated 2005)
Where “and” joins values, the source holds several entries; their conditions need not be identical. Identical values can stand only once. Entries after “also recorded” stand apart in the source; their conditions may differ.

Legend:
[1] = system: primary chicken embryonic connective tissue fibroblasts; assay: Fibroblast growth assay; format: cell-based
Method: Primary chicken embryonic connective tissue fibroblasts (CEFs) were cultured as previously described in Martins-Green and Feugate (1998). Briefly, these fibroblasts were isolated from 10-day-old chicken embryo body walls, plated at 6×10^6 cells/100 mm plate and cultured for 4 days in 199 medium with 5% donor calf serum, 1% chick serum and 0.3% tryptose phosphate broth. These cultures were passaged once (secondary cultures); the cells were plated at 0.4×10^6 cells/35 mm plate in 199/tryptose phosphate broth and 2% donor calf serum.
Secondary fibroblasts were plated at 0.4×10^6 cells/35 mm plate and cCAF was added to experimental plates. For each experiment, plating efficiency was determined by trypsinizing plates four hours after plating. Cells were counted with a Coulter particle counter to confirm even plating of cells. The media was replaced approximately every 16 hr with 1 ml of […] 199 medium containing 0.3% tryptose phosphate broth and 2% donor calf serum, and 100-1000 ng cCAF [9-90 nM] or C- or N-peptide [64-640 nM] was added to the experimental plates, whereas, control plates contained media only. On day 3, plates were trypsinized to remove all cells and cells were counted using a Coulter counter. To test for specificity, anti-cCAF rabbit serum was pre-incubated with cCAF (3 μl serum/750 ng cCAF [68 nM] or N-peptide [480 nM]) for 1 hr at room temperature before being added to cells.

CEFs = assay: Trypan blue staining for necrotic cells; format: cell-based; conditions: cCAF-treated fibroblasts
Method: The supernatant of treated and untreated CEFs was collected, the cells centrifuged to a pellet and resuspended in a small volume of medium. 1% trypan blue was added to a final concentration of 0.5% trypan blue. Cells were stained for 5min and then counted in a hemocytometer. Necrotic cells stained blue.

[2] = system: fibroblast-seeded collagen gels; assay: Collagen gel contraction by fibroblasts; format: cell-based, chicken
Method: 1.5 ml Vitrogen 100 collagen gels were made in 35 mm plates. Secondary fibroblasts were plated at 0.4×10^6 cells/35 mm plate on top of the gels. After the cells had adhered to the collagen, cCAF was added to experimental plates. The medium was replaced approximately every 16 hr with 1 ml of 199 supplemented with 0.3% tryptose phosphate broth and 2% donor calf serum, and 750 ng cCAF [68 nM] or N-peptide [480 nM] was added to the experimental plates. Control plates contained media only. After 4 days, gels were released. Treatment was continued for 2 more days and gels were photographed every 12 hours. The photographs were used for evaluation of gel contraction by determining the area of the gel using NIH image analysis.

[3] = system: Full-thickness excision wounds on the underside of the wings of 2-week-old chicks; assay: Wounding experiment: closure of excision wounds; format: in vivo, chicken; conditions: 1 μg every other day
Method: Full-thickness excision wounds (approximately 0.5×0.5 cm) were made, using a scalpel blade, on the underside of the wings of 2-week-old chicks. The left wing was treated with vehicle alone (water), and the right wing with […] cCAF [90 nM]. The wounds were photographed immediately after wounding and then covered with Biocclusive bandage. 50 μl vehicle (water) or cCAF was deposited through the bandage onto the wound using a 30-gauge needle. This procedure was repeated the next day and every other day thereafter. On days 3, 5 and 7, the bandages were removed and the wounds were photographed before replacing the bandages and applying the treatment again.

[4] = system: granulation tissue of excision wounds; assay: Histology of excision wounds (Masson Trichrome); format: in vivo, chicken; conditions: 1 μg cCAF every other day; versus vehicle
Method: (§1) At the specified time points, chickens were euthanized with sodium pentobarbitol. The wounded wings were collected and fixed for 18 hrs in 4% paraformaldehyde and decalcified for 3 days in 5% formic acid, 2.5% formaldehyde at 4° C. The tissue was embedded in paraffin and sectioned. Sections were stained with Masson Trichrome to visualize interstitial collagen. Other sections were immunolabeled for α-SMA. Sections were deparaffinized with 3×15 min washes in Hemo-De and rehydrated in 5 min washes of ethanol (100%, 95%, 70%, 50%, 30%). After rinsing with PBS, sections were fixed in 2% paraformaldehyde 1 hr. General autofluoresence and non-specific staining were blocked by 30 min in 0.1M glycine in PBS, followed by 30 min in 1% Evans Blue in PBS to quench red blood cell autofluorescence. Sections were incubated with α-SMA antibody in 1% BSA in PBS (1:50) for 2 hr at room temperature. After 3×10 min washes in 0.1% BSA in PBS, the sections were incubated for 40 min with anti-mouse Alexa antibody in 1% BSA in PBS (1:200). They were then washed and mounted with Vectashield.

α-SMA = assay: Immunostaining for α-SMA in granulation tissue of excision wounds; format: in vivo, chicken; conditions: 1 μg cCAF every other day; versus vehicle
Method: as §1

[5] = system: chicken CXC receptor 1 (CXCR1); assay: Chicken cCXCR1-mediated calcium release; format: cell-based; conditions: 400 ng
Method: NIH #373 cells overexpressing the chicken CXC receptor 1 (CXCR1) were exposed to the full-length cCAF molecule, the 15-amino N-terminal peptide of cCAF, or the 28-amino acid C-terminal peptide and calcium release was then measured.

[6] = system: chicken chorioallantoic membrane (CAM); conditions: cited from earlier work

B1: cCAF: CXC chemokine chicken Chemotactic and Angiogenic Factor, full-length, SEQ ID NO:2; purified or synthesized (protein)
chain: LSQGRTLVKMGNELRCQCISTHSKFIHPKSIQDVKLTPSGPHCKNVEIIATLKDGREVCLDPTAPWVQLIVKALMAKAQLNSDAPL
modifications: Gallusgallus
notes: purified or synthesized
time required for the decrease in cell numbers to be detected [1]: 2 to 3 days | effect on fibroblast growth / cell numbers ([1]; 3 days treatment, 2% donor calf serum): suppresses fibroblast proliferation in a dose-dependent pattern | dose of greatest (maximum) suppression of fibroblast proliferation ([1]; 3 days treatment, increasing doses of cCAF): 750 ng/mL and 500 to 750 ng/mL | time of greatest suppression of proliferation ([1]; after plating, not shown): 2 days | suppression of fibroblast proliferation compared to untreated cells ([1]; fibroblasts cultured in the presence of serum (2% donor calf serum), p<0.01): 25% | fibroblast growth relative to untreated cells ([1]; of untreated cells): about 75% | necrotic cell death (CEFs): does not stimulate cell necrosis; also recorded: does not cause cells to undergo necrosis | contraction of collagen gels after release ([2]; 750 ng/ml, 4-5 days treatment before release, versus untreated cells): much greater contraction; also recorded: stimulated fibroblasts to contract collagen gels more efficiently than untreated cells; also recorded: contracted the gels more tightly than did untreated cells | contraction of fibroblast clusters on collagen ([2]; versus control cells): form clusters that are much tighter and generally pull away from the collagen; also recorded: more contracted than clusters in control cells | wound closure at day 3 (days 0-3) ([3]; topical, versus vehicle (H2O) on contralateral wing): closed to a significantly greater degree than the vehicle-treated wounds | wound closure at day 5 ([3]; versus vehicle): closure of the control wounds was still less than that of the experimental wounds | wound closure at day 7 ([3]; versus vehicle): completely closed | density of granulation tissue, days 3 and 5 [4]: denser repair tissue than the control wounds; also recorded: appears more dense earlier in wound healing | granulation tissue at day 7 [4]: minimal; also recorded: appear to be already remodeling | cells labeling for α-SMA in granulation tissue, day 3 (α-SMA): numerous cells labeling for α-SMA; also recorded: many more cells that label for α-SMA | cells labeling for α-SMA in granulation tissue, day 5 (α-SMA): many more myofibroblasts than the control wounds; also recorded: many more cells staining for α-SMA | cells labeling for α-SMA in granulation tissue, day 7 (α-SMA): continue to have more labeled cells than do control wounds | time to calcium release [5]: ≤ 1 min | calcium release ([5]; NIH #373 cells overexpressing chicken CXCR1): induced a rapid (within 1 min.) release of calcium | angiogenesis in the CAM ([6]; high concentrations, in the absence of leukocyte chemotaxis): stimulates blood vessel sprouting from the preexisting vessels of the CAM | leukocyte chemotaxis in the CAM ([6]; low doses): chemotactic for monocyte/macrophages and lymphocytes
